Results taken from patent JP2010189402A (dated 2010).
Where “and” joins values, the source holds several entries; their conditions need not be identical. Identical values can stand only once. Values belong to the binder of their own block, whether it stands above or below them.

Key:
[1] = molecular target: T1, ヒトCD20抗原 (human, UniProt P11836 1-297); experiment: cell-based or functional assay
T1 sequence (looked up): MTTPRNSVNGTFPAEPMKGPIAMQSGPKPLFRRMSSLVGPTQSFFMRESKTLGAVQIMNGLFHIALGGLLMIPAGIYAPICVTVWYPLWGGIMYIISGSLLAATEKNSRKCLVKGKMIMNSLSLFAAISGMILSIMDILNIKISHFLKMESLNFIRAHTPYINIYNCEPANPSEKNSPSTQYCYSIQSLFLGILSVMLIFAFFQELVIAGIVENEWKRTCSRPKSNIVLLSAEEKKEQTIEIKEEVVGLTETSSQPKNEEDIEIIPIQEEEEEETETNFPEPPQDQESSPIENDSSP

[2] = molecular target: T1, ヒトCD20抗原; experiment: Scatchard analysis, Raji cells
[3] = molecular target: T1, ヒトCD20抗原; experiment: Scatchard analysis, Raji cells, FITC-labelled secondary antibody fluorescence

B2: 抗CD20キメラ抗体 1k1736 (antibody, V domains shown)
VH: QVQLQQPGAELVKPGASVKMSCKASGYTFTTYNLHWVKQTPGQGLEWIGGIYPGNGDTSYNQKFKVKATLTADKSSNTAYMQLSSLTSEDSAVYYCARWIYYGNYEGTLDYWGQGTSVTVSS
VL: QIVLSQSPAILSSSPGEKVTMTCRASSSVSYMLWYQQKPGSSPEPWIYATSNLASGVPARFSGGGSGTSYSLTISRVEAEDAATYYCQQWTFNPPTFGGGTKLEIK
- CDC 傷害活性 (RC−K8細胞) [1]: ~10 %

B4: 抗ヒトCD20マウスモノクローナル抗体 1k1402 (antibody, V domains shown)
VH: QVQLQQPGAELVKPGASVKMSCKASGFTFTSYNMHWVKQTPGQGLEWIGGIYPGNGDTSYNQKFKGKATLTADKSSSTAYMQLSSLTSEDSAVYYCARFYYYGSMGAMDYWGQGTSVTVSS
VL: QIVLSQSPAILSASPGEKVTMTCRASSSVSYMHWYQQKPGSSPKPWIYATSNLASGVPARFSGSGSGTSYSLTITRVEAEDAATYYCQQWTFNPPTFGAGTKLELK
notes: Mouse monoclonal antibody from hybridoma; also called m1402
- binding result [2]: binds

B5: ヒト化抗CD20モノクローナル抗体 hz1791-ff (antibody, V domains shown)
VH: QIQLVQSGSELKKPGASVKVSCKASGYTFTNFGVNWVKQAPGKGLKWMGWINTYTGEPSYADDFKGRFAFSLDASASTAYLQISSLKAEDMATYFCTRRTNYYGTSYYYAMDYWGQGTTVTVSS
VL: STVMTQSPSFLSASVGDRVTITCKASQSVSNDVAWYQQKPGQSPKVLIYFASNRYTGVPDRFSGSGYGTDFTLTISSLQAEDVAVYFCQQDYSSPLTFGAGTKLEIK
notes: also called ff; hz1791-ff34
- Kd [3]: < 9.5 nM

B6: ヒト化抗CD20モノクローナル抗体 hz1791-ss (antibody, V domains shown)
VH: QIQLVQSGSELKKPGASVKVSCKASGYTFTNFGVNWVRQAPGKGLKWMGWINTYTGEPSYAQGFTGRFAFSLDASVSTAYLQISSLKAEDTATYFCTRRTNYYGTSYYYAMDYWGQGTTVTVSS
VL: STVMTQSPDSLAVSLGERATINCKSSQSNSNDVAWYQQKPGQSPKVLIYFASNRYSGVPDRFSGSGYGTDFTLTISSLQAEDVAVYFCQQDYSSPLTFGAGTKLEIK
notes: also called ss; hz1791-ss32
- binding result [2]: binds

B7: ヒト化抗CD20モノクローナル抗体 hz1791-fv (antibody, V domains shown)
VH: QIQLVQSGPELKKPGASVKISCKASGYTFTNFGVNWVKQAPGKGLKWMGWINTYTGEPSYADDFKGRFAFSLDASVSTAYLQISSLKAEDTSTYFCTRRTNYYGTSYYYAMDYWGQGTTVTVSS
VL: STVMTQSPSFLSASVGDRVTITCKASQSVSNDVAWYQQKPGQSPKVLIYFASNRYTGVPDRFSGSGYGTDFTLTISSLQAEDVAVYFCQQDYSSPLTFGAGTKLEIK
notes: also called fv; hz1791-fv10
- Kd [3]: < 9.5 nM

B8: ヒト化抗CD20モノクローナル抗体 hz1791-sf (antibody, V domains shown)
VH: QIQLVQSGSELKKPGASVKVSCKASGYTFTNFGVNWVKQAPGKGLKWMGWINTYTGEPSYADDFKGRFAFSLDASASTAYLQISSLKAEDMATYFCTRRTNYYGTSYYYAMDYWGQGTTVTVSS
VL: STVMTQSPDSLAVSLGERATINCKSSQSNSNDVAWYQQKPGQSPKVLIYFASNRYSGVPDRFSGSGYGTDFTLTISSLQAEDVAVYFCQQDYSSPLTFGAGTKLEIK
notes: also called sf; hz1791-sf43
- Kd [3]: 13 nM and 9.5 nM

B9: 抗CD20キメラ抗体 1k1422 (antibody, V domains shown)
VH: QVQLQQPGAELVKPGASVKMSCRASGYTFTNYNMHWIKQTPGQGLEWIGAIYPGSGDTSYNRKFKGKATLTADTSSSTAYMQFSSLTSADSAVYYCARFTYYYGGTYGAMDYWGQGTSVTVSL
VL: QIVLTQSPPIMSASLGEEITLTCSASSRVSYMLWYQQKSGTSPKLLIYSTSNLASGVPSRFSGSGSGTFYSLTISSVEAEDAADYYCHQWTSNPCTFGGGTKLEIK
- CDC 傷害活性 (RC−K8細胞) [1]: ~10 %

Results, then the binder that gave them:

- CDC 傷害活性 (RC−K8細胞) [1]: ~25 %
B1: 抗CD20キメラ抗体 1k0924 (antibody, V domains shown)
VH: QVQLQQPGAELVKPGASVKMSCKASGYTFTSYNIHWVKQTPGQGLEWIGAIYPGNGDTSYNQKFKGKATLTSDKSSSTAYMQLSSLTSEDSAVYYCARMSTMITGFDYWGQGTTLTVSS
VL: QIVLSQSPAILSASPGEKVTMTCRASSSVSYMHWYQQRPGSSPKPWIYATSNLASGVPARFSGSGSGTSYYFTISRVEAEDAATYYCQQWNSNPPTHGGGTKLEIK

- binding result [2]: binds
B3: 抗ヒトCD20マウスモノクローナル抗体 1k1712 (antibody, V domains shown)
VH: QVQLQQPGAELVKPGASVKMSCKASGFTFTSYNLHWVKQTPGQGLEWIGAIYPGSGDTSYNQQFKGKATLTADKSSNTAYMQLNSLTSEDSAVYCCARSAMISTGNWYFDYWGQGTTLTVSS
VL: QIVLSQSPAILSASPGEKVTMTCRASSSVSYMDWYQQKPGSSPKPWIYATSNLASGVPARFSGSGSGTSYSLTISRVEAEDTATYYCQQWTFNPPTFGSGTKLEIK
notes: Mouse monoclonal antibody from hybridoma; also called m1712

- binding result [2]: binds
B10: 抗ヒトCD20マウスモノクローナル抗体 1k1782 (antibody, V domains shown)
VH: QVQLQQSGAELAKPGASVKMSCKASGYTFTSYWMHWVKQRPGQGLEWIGYITPSTGYTDYNKKFKDKATLTADRSSSTAYMHLSSLTSEDSAVYYCARSGPYFDVWGAGTTVTVSS
VL: DILLTQSPAILFVSPGERVSLSCRASQNIGTSIHWYQQRTNGSPRLLIKYASESFSGIPSRFSGSGSGTDFTLSINSVESEDIADYYCQQSNSWPFTFGSGTKLEIK
notes: Mouse monoclonal antibody from hybridoma; also called m1782

- binding result [2]: binds
B11: 抗ヒトCD20マウスモノクローナル抗体 1K1228 (antibody, V domains shown)
VH: QVQLQQPGAELVKPGASVKVSCKASGFTFTSYNLHWVKQTPGQGLVWIGAIYPGNGDTSYNQKFRGKATLTADISSSTAYMQLSSLTSEDSAVYYCARYYYGYDAMDYWGQGTSVTVSS
VL: EIILTQSPTTMAASPGEKITITCSASSSISSYYLRWYQQKPGFSPKVLIYRTSNLASGVPARFSGSGSGTSYSLTIGTMEAEDVATYYCQQGNTVPLTFGSGTKLEIK
notes: Mouse monoclonal antibody from hybridoma; also called m1228
